Laboratory results: patent publication US20200317768A1 (published 2020)
Substitutions are numbered along the chain they refer to. Names may count otherwise.

T1: cynomolgus monkey FcγRIIa3 extracellular domain, C-terminal His-tag (cynomolgus monkey)
T1 construct: also called cyno FcγRIIa3; cynoFcgRIIa3; not shown: His-tag added to C-terminus
T1 chain: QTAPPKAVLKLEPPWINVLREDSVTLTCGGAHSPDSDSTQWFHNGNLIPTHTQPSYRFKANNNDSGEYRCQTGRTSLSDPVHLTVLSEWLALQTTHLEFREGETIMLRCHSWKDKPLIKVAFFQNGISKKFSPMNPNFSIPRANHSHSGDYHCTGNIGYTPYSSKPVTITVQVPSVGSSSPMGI

T2: cynomolgus monkey FcγRIIa1 extracellular domain, C-terminal His-tag (cynomolgus monkey)
T2 construct: also called cyno FcγRIIa1; cynoFcgRIIa1; not shown: His-tag added to C-terminus
T2 chain: T1 chain with T95P, A121T, S128A, P133H, N135D

T3: human FcγRIIaR extracellular domain, C-terminal His-tag (human, UniProt P12318 34-217)
T3 construct: also called human FcγRIIa (type R); FcgRIIaR; not shown: His-tag added to C-terminus
T3 chain: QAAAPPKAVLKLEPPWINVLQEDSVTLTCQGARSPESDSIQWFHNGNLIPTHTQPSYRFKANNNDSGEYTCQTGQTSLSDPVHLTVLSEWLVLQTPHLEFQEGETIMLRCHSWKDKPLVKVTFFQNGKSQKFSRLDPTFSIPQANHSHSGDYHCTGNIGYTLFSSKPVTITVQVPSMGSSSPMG

T4: cynomolgus monkey FcγRIIb extracellular domain, C-terminal His-tag (cynomolgus monkey)
T4 construct: also called cyno FcγRIIb; cynoFcγRIIb; not shown: His-tag added to C-terminus
T4 chain: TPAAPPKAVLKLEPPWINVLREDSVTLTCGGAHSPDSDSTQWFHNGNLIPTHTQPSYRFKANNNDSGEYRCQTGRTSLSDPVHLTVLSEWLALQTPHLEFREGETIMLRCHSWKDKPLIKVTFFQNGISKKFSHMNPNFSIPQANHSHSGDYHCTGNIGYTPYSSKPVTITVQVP

T5: cynomolgus monkey FcγRIIa2 extracellular domain, C-terminal His-tag (cynomolgus monkey)
T5 construct: also called cyno FcγRIIa2; cynoFcgRIIa2; not shown: His-tag added to C-terminus
T5 chain: T1 chain with I127K, K130N, P133H, R142Q

T6: human FcγRIIaH extracellular domain, C-terminal His-tag (human, UniProt P12318 34-217)
T6 construct: also called human FcγRIIa (type H); FcgRIIaH; not shown: His-tag added to C-terminus
T6 sequence: T3 chain with R134H

T7: human FcγRIIb extracellular domain, C-terminal His-tag (human, UniProt P31994 43-217)
T7 construct: also called humanFcgRIIb; not shown: His-tag added to C-terminus
T7 sequence: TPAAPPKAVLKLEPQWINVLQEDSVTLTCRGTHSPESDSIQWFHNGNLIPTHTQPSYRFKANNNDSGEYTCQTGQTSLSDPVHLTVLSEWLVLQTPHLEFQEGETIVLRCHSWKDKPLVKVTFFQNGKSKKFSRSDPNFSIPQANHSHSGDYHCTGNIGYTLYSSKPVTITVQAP

B1: M103240H795-SG1079 / M103202L1045-SK1 (antibody)
heavy: QVQLVESGGGLVQPGGSLRLSCAVSGIDLSHDDISWVRQAPGKGLEWVSIISYAGSTYYASWAKGRLTISKDTSKNQVVLTMTNMDPVDTATYYCARGVPAYSHGGDLWGQGTLVTVSSASTKGPSVFPLAPSSKSTSGGTAALGCLVKDYFPEPVTVSWNSGALTSGVHTFPAVLQSSGLYSLSSVVTVPSSSLGTQTYICNVNHKPSNTKVDKKVEPKSCDKTHTCPPCPAPELLNGPSVFLFPPKPKDTLMISRTPEVTCVVVDVSDEDPEVKFNWYVDGVEVHNAKTKPREELYNSTYRVVSVLTVLHRDWLNGKEYKCKVSNKALPKPIEKTISKAKGQPREPQVYTLPPSREEMTKNQVSLTCLVKGFYPSDIAVEWESNGQPENNYKTTPPVLDSDGSFFLYSKLTVKKSRWQQGNVFSCSVMHEALHAHYTRKELSLSP
light: DIVMTQSPATLSLSPGERATLSCTTSQSVYHENWLSWFQQKPGQPPKLLIYWASTLAYGVPSRFSGSGSGTDFTLTISSLQPEDAATYYCAGGYGGGRYAFGQGTKVEIKRTVAAPSVFIFPPSDEQLKSGTASVVCLLNNFYPREAKVQWKVDNALQSGNSQESVTEQDSKDSTYSLSSTLTLSKADYEKHKVYACEVTHQGLSSPVTKSFNRGEC
notes: CH with G236N/H268D/Q295L/Q311R/A330K/D413K/N434A/Q438R/S440E against SG1 (EU numbering); also called MS1032LO19-SG1079
B2: M103240H795-SG1077 / M103202L1045-SK1 (antibody)
heavy: B1 heavy with L237W, K328T, P345R, K415D, M430L, Y438T
light: B1 light
notes: CH with L235W/G236N/H268D/Q295L/Q311R/K326T/A330K/P343R/M428L/N434A/Y436T/Q438R/S440E against SG1 (EU numbering); also called MS1032LO19-SG1077
B3: M103240H795-SG1081 / M103202L1045-SK1 (antibody)
heavy: B1 heavy with L237W, K328T, P345R, K415D
light: B1 light
notes: CH with L235W/G236N/H268D/Q295L/Q311R/K326T/A330K/P343R/N434A/Q438R/S440E against SG1 (EU numbering); also called MS1032LO19-SG1081
B4: M103240H795-SG1080 / M103202L1045-SK1 (antibody)
heavy: B1 heavy with K328T, P345R, K415D
light: B1 light
notes: CH with G236N/H268D/Q295L/Q311R/K326T/A330K/P343R/N434A/Q438R/S440E against SG1 (EU numbering); also called MS1032LO19-SG1080

Target: T1, cynomolgus monkey FcγRIIa3 …
Assay: SPR (BIACORE), antibody captured, FcγR analyte

Row | Kd | Binder
1 | 2.1 µM | B1
2 | 2 µM | B2
3 | 2.1 µM | B3
4 | 1.1 µM | B4

Each binder was assayed against T8, cynomolgus monkey FcγRIIIaS extracellular domain, C-terminal His-tag (cynomolgus monkey, UniProt A3RFZ7 21-206 (rhesus entry)) (assay: SPR (BIACORE), antibody captured, FcγR analyte).
T8 construct: also called cyno FcγRIIIaS; cynoFcγRIIIaS; not shown: His-tag added to C-terminus
T8 sequence (A3RFZ7 21-206): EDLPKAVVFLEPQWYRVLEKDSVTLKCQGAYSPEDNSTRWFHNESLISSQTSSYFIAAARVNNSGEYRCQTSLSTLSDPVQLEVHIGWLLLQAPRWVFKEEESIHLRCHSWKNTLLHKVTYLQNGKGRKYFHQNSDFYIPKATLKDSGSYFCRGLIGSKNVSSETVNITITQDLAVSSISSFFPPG

Row | Kd | Binder
5 | 3.3 µM | B1
6 | 2.9 µM | B2
7 | 2.9 µM | B3
8 | 1.4 µM | B4

Target: T2, cynomolgus monkey FcγRIIa1 …
Assay: SPR (BIACORE), antibody captured, FcγR analyte

Row | Kd | Binder
9 | 1.1 µM | B1
10 | 1.4 µM | B2
11 | 1.4 µM | B3
12 | 0.65 µM | B4

Target: T3, human FcγRIIaR extracellular domain, …
Assay: SPR (BIACORE), antibody captured, FcγR analyte

Row | Kd | Binder
13 | 1.2 µM | B1
14 | 0.69 µM | B2
15 | 0.68 µM | B3
16 | 0.56 µM | B4

Target: T4, cynomolgus monkey FcγRIIb extracellular …
Assay: SPR (BIACORE), antibody captured, FcγR analyte

Row | Kd | Binder
17 | 0.3 µM | B1
18 | 0.32 µM | B2
19 | 0.29 µM | B3
20 | 0.14 µM | B4

Each binder was assayed against T9, human FcγRIIIaV extracellular domain, C-terminal His-tag (human, UniProt P08637 17-208) (assay: SPR (BIACORE), antibody captured, FcγR analyte).
T9 construct: also called FcgRIIIaV; not shown: His-tag added to C-terminus
T9 sequence (P08637 17-208 F176V): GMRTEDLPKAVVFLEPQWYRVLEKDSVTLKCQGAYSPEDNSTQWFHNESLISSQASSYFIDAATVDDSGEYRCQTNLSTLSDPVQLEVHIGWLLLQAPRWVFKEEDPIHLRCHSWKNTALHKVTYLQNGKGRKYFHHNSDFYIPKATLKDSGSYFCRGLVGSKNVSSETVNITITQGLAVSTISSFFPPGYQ

Row | Kd | Binder
21 | 5.2 µM | B1
22 | 3.4 µM | B2
23 | 3.4 µM | B3
24 | 4.6 µM | B4

Target: T5, cynomolgus monkey FcγRIIa2 …
Assay: SPR (BIACORE), antibody captured, FcγR analyte

Row | Kd | Binder
25 | 1.2 µM | B1
26 | 1.3 µM | B2
27 | 1.8 µM | B3
28 | 0.68 µM | B4

These binders were tested against T6, human FcγRIIaH extracellular domain, … (assay: SPR (BIACORE), antibody captured, FcγR analyte).

Row | Kd | Binder
29 | 0.67 µM | B1
30 | 0.93 µM | B2
31 | 0.99 µM | B3
32 | 0.45 µM | B4

Each binder was assayed against T7, human FcγRIIb extracellular domain, … (assay: SPR (BIACORE), antibody captured, FcγR analyte).

Row | Kd | Binder
33 | 0.69 µM | B1
34 | 0.51 µM | B2
35 | 0.5 µM | B3
36 | 0.37 µM | B4

Target: T1, cynomolgus monkey FcγRIIa3 …
Assay: SPR (BIACORE); KD of parent SG1 / KD of variant;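 note: relative to parent M103205H795-SG1 carrying the SG1 human heavy chain constant region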

Row | KD fold (SG1 = 1) | Binder
37 | 3.2 fold | B1
38 | 3.3 fold | B2
39 | 3.1 fold | B3
40 | 6.1 fold | B4

These binders were tested against T8, cynomolgus monkey FcγRIIIaS … (assay: SPR (BIACORE); KD of parent SG1 / KD of variant;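 note: relative to parent M103205H795-SG1 carrying the SG1 human heavy chain constant region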).

Row | KD fold (SG1 = 1) | Binder
41 | 0.08 fold | B1
42 | 0.09 fold | B2
43 | 0.09 fold | B3
44 | 0.19 fold | B4

Target: T2, cynomolgus monkey FcγRIIa1 …
Assay: SPR (BIACORE); KD of parent SG1 / KD of variant;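 note: relative to parent M103205H795-SG1 carrying the SG1 human heavy chain constant region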

Row | KD fold (SG1 = 1) | Binder
45 | 3.4 fold | B1
46 | 2.7 fold | B2
47 | 2.7 fold | B3
48 | 5.8 fold | B4

Target: T3, human FcγRIIaR extracellular domain, …
Assay: SPR (BIACORE); KD of parent SG1 / KD of variant;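 note: relative to parent M103205H795-SG1 carrying the SG1 human heavy chain constant region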

Row | KD fold (SG1 = 1) | Binder
49 | 0.8 fold | B1
50 | 1.4 fold | B2
51 | 1.4 fold | B3
52 | 1.7 fold | B4

Target: T4, cynomolgus monkey FcγRIIb extracellular …
Assay: SPR (BIACORE); KD of parent SG1 / KD of variant

Row | KD fold (SG1 = 1) | Binder
53 | 5.7 fold | B1
54 | 5.4 fold | B2
55 | 5.9 fold | B3
56 | 12.6 fold | B4

What follows are binders tested against T9, human FcγRIIIaV extracellular domain, … (assay: SPR (BIACORE); KD of parent SG1 / KD of variant).

Row | KD fold (SG1 = 1) | Binder
57 | 0.18 fold | B1
58 | 0.17 fold | B2
59 | 0.17 fold | B3
60 | 0.13 fold | B4

Target: T5, cynomolgus monkey FcγRIIa2 …
Assay: SPR (BIACORE); KD of parent SG1 / KD of variant

Row | KD fold (SG1 = 1) | Binder
61 | 3.4 fold | B1
62 | 3.1 fold | B2
63 | 3.2 fold | B3
64 | 6.1 fold | B4

What follows are binders tested against T6, human FcγRIIaH extracellular domain, … (assay: SPR (BIACORE); KD of parent SG1 / KD of variant).

Row | KD fold (SG1 = 1) | Binder
65 | 1.4 fold | B1
66 | 1 fold | B2
67 | 1 fold | B3
68 | 2.1 fold | B4

Each binder was assayed against T7, human FcγRIIb extracellular domain, … (assay: SPR (BIACORE); KD of parent SG1 / KD of variant).

Row | KD fold (SG1 = 1) | Binder
69 | 5.6 fold | B1
70 | 7.5 fold | B2
71 | 7.7 fold | B3
72 | 10.5 fold | B4
